This data set relates to ATP. As to the kind of experiment: switch fluorescence ratio, 500 uM ATP over buffer (Cy3 cluster intensity, sum of 5 cycles each) (fold (ratio)); higher = stronger signal-on switching upon ATP binding; sequences stand for … in TCGTCGGCAGCGTCAGATGTGTATAAGAGACAGTTTTTTTTTTTTTTTTTTTTTTTTT…TC. The conditions noted are these: aptamer strand: ATP DNA aptamer (quencher-CACCTGGGGGAGTATTGCGGAGGAAGG + anchor), 100 nM annealed; ATP concentration: 500 uM. The gist of the method:
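Between each of five buffer/ATP cycles, the flow-cell was stripped with NaOH and re-annealed. Each cycle imaged Cy3-labelled switching-strand clusters, annealed to 100 nM quencher-labelled ATP aptamer on a modified Illumina MiSeq flow-cell, first in selection buffer and then after 15 min with 500 uM ATP at 22 °C. The fluorescence ratio is summed target-cycle over summed buffer-cycle Cy3 intensity per cluster, averaged per switch-domain sequence, with clusters outside 100-1000 RFU excluded.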

± gives the standard deviation of the averaged measurements.
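Also: ATP exposure 15 min at 22 °C before imaging.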

In the case of TGTTGTATAT, the switch fluorescence ratio stood at 1 ± 0.023.

Consider TGTTGTCAAG, for which the switch fluorescence ratio was found to be 1.01 ± 0.026.

Regarding TGTTGTGCAG, the switch fluorescence ratio came to 0.958 ± 0.03. As for TGTTGTGGGG, the figure is 0.96 ± 0.025; as for TGTTGTGGTG, 1 ± 0.033. Consider TGTTGTTGTA, for which the switch fluorescence ratio was found to be 1.015 ± 0.0081. On to TGTTGTTTTG, for which the switch fluorescence ratio came out at 1 ± 0.042. The value for TGTTTAATTT was 1.03 ± 0.072; that for TGTTTAGGAG was 1.014 ± 0.0078. For TGTTTAGGGG, the switch fluorescence ratio stood at 1.01 ± 0.025. With TGTTTATGAC, the switch fluorescence ratio came to 0.9847 ± 0.0081. As for TGTTTATTGG, the switch fluorescence ratio came to 1.01 ± 0.065. Turning to TGTTTATTTA, the switch fluorescence ratio was found to be 0.983 ± 0.0018. As for TGTTTCATTT, the figure is 0.989 ± 0.016. As to TGTTTCGGTT, the switch fluorescence ratio was 0.943 ± 0.044. Turning to TGTTTCTATT, the switch fluorescence ratio was 0.9925 ± 0.0055. As for TGTTTGAAAT, the switch fluorescence ratio turned out to be 0.998 ± 0.034. With TGTTTGAGGT, the switch fluorescence ratio came to 0.999 ± 0.033. For TGTTTGCGAA, the switch fluorescence ratio stood at 1.01 ± 0.045. Regarding TGTTTGCTTT, the switch fluorescence ratio came out at 0.986 ± 0.023. TGTTTGGGGA: the switch fluorescence ratio was found to be 0.997 ± 0.018. TGTTTGGGGT: the switch fluorescence ratio came to 0.996 ± 0.055. As for TGTTTGGGTA, the figure is 1 ± 0.07; as for TGTTTGGTCA, 0.976 ± 0.065. For TGTTTGGTTG, the switch fluorescence ratio was determined as 1.01 ± 0.017. Turning to TGTTTGTAGA, the switch fluorescence ratio was determined as 1.03 ± 0.018. On to TGTTTGTGCT, for which the switch fluorescence ratio was found to be 0.983 ± 0.027. For the sequence TGTTTGTTAC, the switch fluorescence ratio turned out to be 1.011 ± 0.0076.

With TGTTTGTTCG, the switch fluorescence ratio stood at 0.986 ± 0.021. Consider TGTTTGTTCT, for which the switch fluorescence ratio came out at 0.976 ± 0.014. The value for TGTTTGTTTG was 1 ± 0.036; that for TGTTTTAACT was 1.01 ± 0.017; that for TGTTTTACTG was 0.996 ± 0.015. Regarding TGTTTTAGTG, the switch fluorescence ratio was 0.994 ± 0.021. Regarding TGTTTTATAA, the switch fluorescence ratio is 0.995 ± 0.024.

On to TGTTTTCATT, for which the switch fluorescence ratio amounted to 0.973 ± 0.044.

TGTTTTCTTT: the switch fluorescence ratio turned out to be 0.987 ± 0.019. As for TGTTTTGGCA, the switch fluorescence ratio stood at 0.9963 ± 0.0052.

For the sequence TGTTTTGGG, the switch fluorescence ratio was found to be 0.992 ± 0.042.

In the case of TGTTTTTAA, the switch fluorescence ratio was determined as 1 ± 0.062. For the sequence TTAAAAAACG, the switch fluorescence ratio was 1.04 ± 0.052. In the case of TTAAAAAAGA, the switch fluorescence ratio is 0.998 ± 0.013.

As to TTAAAAAATG, the switch fluorescence ratio is 1.03 ± 0.042.

As for TTAAAAATAC, the switch fluorescence ratio was 1.06 ± 0.025. The value for TTAAAAATAT was 1.02 ± 0.053; that for TTAAAAATTT was 0.976 ± 0.025. As to TTAAAAGAT, the switch fluorescence ratio came out at 0.998 ± 0.035. Take TTAAAAGCGA: the switch fluorescence ratio stood at 0.974 ± 0.023. Consider TTAAAAGCGG, for which the switch fluorescence ratio came to 1.03 ± 0.013. In the case of TTAAAAGGAG, the switch fluorescence ratio turned out to be 1.01 ± 0.044.

Regarding TTAAAAGGG, the switch fluorescence ratio is 0.9979 ± 0.007. Regarding TTAAAAGGGA, the switch fluorescence ratio came to 1.02 ± 0.07. As to TTAAAAGTGT, the switch fluorescence ratio is 0.999 ± 0.026. For TTAAAATGTA, the switch fluorescence ratio was found to be 0.992 ± 0.03.

As for TTAAAATGTG, the switch fluorescence ratio came out at 1.04 ± 0.059. Regarding TTAAACCCGC, the switch fluorescence ratio is 1.08 ± 0.019. Turning to TTAAAGCGGG, the switch fluorescence ratio worked out at 1.01 ± 0.012. The value for TTAAAGGGGC was 1.03 ± 0.06; that for TTAAAGTAGC was 1.02 ± 0.017; that for TTAAAGTCAT was 1.007 ± 0.0072. On to TTAAATAATT, for which the switch fluorescence ratio was determined as 0.992 ± 0.019. Regarding TTAAATCGGC, the switch fluorescence ratio stood at 0.991 ± 0.043. With TTAAATGTTG, the switch fluorescence ratio was determined as 1.01 ± 0.059.

Regarding TTAAATTCGC, the switch fluorescence ratio stood at 0.999 ± 0.0094. For the sequence TTAAATTGCG, the switch fluorescence ratio is 0.994 ± 0.027. As to TTAACAGTGT, the switch fluorescence ratio is 0.964 ± 0.035. For TTAACATGGG, the switch fluorescence ratio is 1 ± 0.033. As for TTAACGCAA, the switch fluorescence ratio was 3.6 ± 2. Regarding TTAACGCCTC, the switch fluorescence ratio stood at 1.0315 ± 0.001.

Take TTAACGGGAG: the switch fluorescence ratio was 0.99 ± 0.019. With TTAACGGGCT, the switch fluorescence ratio came to 1.01 ± 0.048. In the case of TTAACGGTGT, the switch fluorescence ratio came out at 1.004 ± 0.005. TTAACTGCAC: the switch fluorescence ratio is 1.44 ± 0.056. On to TTAAGAAAAA, for which the switch fluorescence ratio stood at 1.01 ± 0.016.

As for TTAAGAAGAC, the switch fluorescence ratio turned out to be 1.04 ± 0.018.

For TTAAGAATGG, the switch fluorescence ratio was 1.01 ± 0.014. TTAAGAATTC: the switch fluorescence ratio was found to be 0.954 ± 0.021.

Turning to TTAAGACGTA, the switch fluorescence ratio was found to be 1.03 ± 0.063. For TTAAGACGTC, the switch fluorescence ratio came to 1.01 ± 0.0011. Take TTAAGAGGC: the switch fluorescence ratio amounted to 1.01 ± 0.2. Consider TTAAGAGGTC, for which the switch fluorescence ratio turned out to be 0.979 ± 0.018.

Regarding TTAAGAGTCT, the switch fluorescence ratio was 1.02 ± 0.049. Take TTAAGAGTTA: the switch fluorescence ratio came to 1.006 ± 0.01. Turning to TTAAGATTCT, the switch fluorescence ratio amounted to 0.993 ± 0.037.

As for TTAAGATTTT, the switch fluorescence ratio stood at 0.9935 ± 0.0053. As to TTAAGCATTT, the switch fluorescence ratio is 1.021 ± 0.0047. The value for TTAAGCTTAG was 1.01 ± 0.015. TTAAGCTTTT: the switch fluorescence ratio is 0.989 ± 0.012.

Consider TTAAGGAAAA, for which the switch fluorescence ratio came to 1.04 ± 0.071. As for TTAAGGACGG, the switch fluorescence ratio was determined as 0.994 ± 0.065. Take TTAAGGGGCA: the switch fluorescence ratio came to 1.02 ± 0.035. In the case of TTAAGGGGG, the switch fluorescence ratio turned out to be 1.03 ± 0.012. The value for TTAAGGGGGG was 1 ± 0.031; that for TTAAGGTATT was 1.07 ± 0.12; that for TTAAGGTGTA was 1.1 ± 0.064. As for TTAAGTCATT, the figure is 0.986 ± 0.039. As to TTAAGTCCA, the switch fluorescence ratio turned out to be 0.995 ± 0.038.

Consider TTAAGTGAGG, for which the switch fluorescence ratio was 1.02 ± 0.016. As to TTAAGTGATT, the switch fluorescence ratio stood at 0.999 ± 0.025.

On to TTAAGTTGTG, for which the switch fluorescence ratio is 0.9827 ± 0.0013. As for TTAAGTTTGG, the switch fluorescence ratio was determined as 1.01 ± 0.027. TTAATAGAGT: the switch fluorescence ratio was found to be 1 ± 0.018.

Consider TTAATAGATG, for which the switch fluorescence ratio came to 1 ± 0.029. Consider TTAATAGATT, for which the switch fluorescence ratio was 0.998 ± 0.021. As to TTAATAGTC, the switch fluorescence ratio stood at 1.05 ± 0.0041. As for TTAATCAGAT, the figure is 0.9533 ± 0.0093; as for TTAATCCCAG, 1.02 ± 0.021. With TTAATCCTTG, the switch fluorescence ratio was 1.02 ± 0.034. On to TTAATCGTGT, for which the switch fluorescence ratio worked out at 0.995 ± 0.037. On to TTAATCTGCC, for which the switch fluorescence ratio turned out to be 1.15 ± 0.025. Turning to TTAATGAAGG, the switch fluorescence ratio was determined as 1 ± 0.025. For the sequence TTAATGATTA, the switch fluorescence ratio worked out at 0.994 ± 0.034.

Regarding TTAATGGGAC, the switch fluorescence ratio is 1.012 ± 0.0033. For the sequence TTAATGTT, the switch fluorescence ratio was determined as 1.02 ± 0.018. For TTAATGTTCA, the switch fluorescence ratio is 1 ± 0.031.

For TTAATGTTGG, the switch fluorescence ratio was 0.962 ± 0.046. As for TTAATTAAAA, the figure is 0.962 ± 0.043; as for TTAATTAGTT, 1.01 ± 0.023; as for TTAATTATGA, 0.991 ± 0.012. In the case of TTAATTATGG, the switch fluorescence ratio is 1 ± 0.034.

(Values after the supplement of paper PMC10126150.)
